What was measured:
Hua2 = experiment: Deep mutational scanning of Abp1 SH3, Abp1-Hua2 DHFR-PCA (DMS score); type: cell-based, Saccharomyces cerevisiae; details: for hua2sc: Frequencies scaled to the synonymous mutation distribution (DMS score) / HUA2_MTX2: frequencies normalized to the reference condition: Abp1-Hua2 DHFR-PCA, MTX2; for HUA2_MTX2: frequencies normalized to the reference condition: single amino acid variants of Abp1 SH3; for quadrant (effect of mutation on Hua2 and Lsb3 interactions): classification from both Hua2 and Lsb3 DMS scores, Dest. both / Dest. Hua2 / Dest. Lsb3 / Neutral
Experimental: (§1) Single site mutation libraries were generated by a PCR-based saturation mutagenesis method[50] as described below. The mutagenesis was carried out on the pUC19 plasmid containing the SH3 domain sequence of ABP1 flanked by its homology arms subsequently used in the CRISPR mediated genomic re-integration. We used oligos containing degenerate nucleotides (NNN) to carry out the mutagenesis at each codon of the domain sequence. In the first step of the two-step PCR procedure (short PCR step), an amplicon was generated with an oligo containing the degenerate codon which is positioned within the domain sequence, and another oligo lying outside Abp1 sequence in the plasmid. Short PCR step was carried out with the following settings: 5 min at 95 °C, 35 cycles: 20 s at 98 °C, 15 s at 60 °C, 30 s at 72 °C, and a final extension of 1 min at 72 °C. The amplicon generated in this step was used as a mega primer in the second step (long PCR step) to amplify the whole plasmid. Long PCR step was carried out with the following settings: 5 min at 95 °C, 22 cycles: 20 s at 98 °C, 15 s at 68 °C, 3 min 30 s at 72 °C, and a final extension of 5 min at 72 °C. The long PCR product was digested for 2 h at 37 °C with DpnI. The digestion product was then transformed into E. coli MC1061 competent cells. In order to obtain most of the 64 possible codons, we recovered ~1000 colonies from each plate to retrieve the plasmid single mutant libraries. Saturation mutagenesis was carried out in a codon-position-wise manner. Mutants at each position were stored separately. Library quality control was assessed by amplifying the purified plasmid DNA preparations by PCR followed by Illumina sequencing as described below. The genomic insertion of the mutant libraries (one library per amino acid position) was performed by targeting the stuffer sequence in the ABP1 SH3-deleted strain as described in the strain construction section. ABP1 SH3-deleted yeast competent cells were co-transformed with pCAS containing the stuffer-specific gRNA and PCR amplified ABP1 SH3 single position mutated libraries from the pUC19 preparations. As for the library generation, ~1000 colonies from each plate were retrieved. Glycerol stocks of yeast cells were kept for each position (58 different stocks corresponding to the 58 amino acid positions of Abp1 SH3). The stocks were also validated by Illumina sequencing (see below).
(§2) Liquid DHFR-PCA experiments were performed following the generation of the ABP1 SH3 single position mutated yeast strains and were performed in biological independent duplicates. An overnight culture was started in YPD + NAT by adding the same number of cells from each yeast mutant strain (master pool). Then, the master pool and Hua2-DHFR F[3] or Lsb3-DHFR F[3] preys strains were mixed in YPD (2:1) for mating and incubated for 8 h at 30 °C. Diploid cells were selected the first time by transferring the mixture in a YPD + NAT + HPH (OD 0.5) culture for 16 h at 30 °C. The next day, the first diploid selection was transferred in SC complete pH 6.0 + NAT + HPH at 0.5 OD and the culture was grown for 24 h at 30 °C. The validation of the yeast mutant libraries was done the next day with a fraction of the diploid cells (first DHFR-PCA experiment time point without PCA selection, reference condition S2) by amplifying ABP1 SH3 genomic sequence followed by Illumina sequencing as described in the section below. Following the selection, diploid cells OD was read using a TECAN Infinite F200 Pro, and dilutions to 0.1 OD in PCA selection media without agar in a 50 mL tube was done. Tubes were incubated at 30 °C for 72 h (second-time point of the DHFR-PCA experiment, first PCA selection). A fraction of the cells (5U OD) was collected for Illumina sequencing. The cells from the first PCA step were grown for a second PCA selection step using the same procedures. […]

Lsb3 = experiment: Deep mutational scanning of Abp1 SH3, Abp1-Lsb3 DHFR-PCA (DMS score); type: cell-based, Saccharomyces cerevisiae; details: Abp1-Lsb3 DHFR-PCA, MTX2; for LSB3_MTX2: frequencies normalized to the reference condition: single amino acid variants of Abp1 SH3
Experimental: as §1, §2

B1: ABP1 L48L (protein, UniProt P15891 2-592, looked up)
Actin-binding protein: ALEPIDYTTHSREIDAEYLKIVRGSDPDTTWLIISPNAKKEYEPESTGSSFHDFLQLFDETKVQYGLARVSPPGSDVEKIIIIGWCPDSAPLKTRASFAANFAAVANNLFKGYHVQVTARDEDDLDENELLMKISNAAGARYSIQTSSKQQGKASTPPVKKSFTPSKSPAPVSKKEPVKTPSPAPAAKISSRVNDNNDDDDWNEPELKERDFDQAPLKPNQSSYKPIGKIDLQKVIAEEKAKEDPRLVQKPTAAGSKIDPSSDIANLKNESKLKRDSEFNSFLGTTKPPSMTESSLKNDDDKVIKGFRNEKSPAQLWAERKAKQNSGNAETKAEAPKPEVPEDEPEGEPDVKDLKSKFEGLAASEKEEEEMENKFAPPPKKSEPTIISPKPFSKPQEPVKAEEAEQPKTDYKKIGNPLPGMHIEADNEEEPEENDDDWDDDEDEAAQPPLPSRNVASGAPVQKEEPEQEEIAPSLPSRNSIPAPKQEEAPEQAPEEEIEEEAEEAAPQLPSRSSAAPPPPPRRATPEKKPKENPWATAEYDYDAAEDNELTFVENDKIINIEFVDDDWWLGELEKDGSKGLFPSNYVSLGN
modifications: synonymous codon change L48L
Hua2
  hua2sc: Frequencies scaled to the synonymous mutation distribution (DMS score): -0.5549
  HUA2_MTX2: frequencies normalized to the reference condition: 1.058
  quadrant (effect of mutation on Hua2 and Lsb3 interactions): Neutral
Lsb3
  lsb3sc: Frequencies scaled to the synonymous mutation distribution (DMS score): -0.4967
  LSB3_MTX2: frequencies normalized to the reference condition: 1.0036

B2: ABP1 F49F (protein, UniProt P15891 2-592, looked up)
Actin-binding protein: ALEPIDYTTHSREIDAEYLKIVRGSDPDTTWLIISPNAKKEYEPESTGSSFHDFLQLFDETKVQYGLARVSPPGSDVEKIIIIGWCPDSAPLKTRASFAANFAAVANNLFKGYHVQVTARDEDDLDENELLMKISNAAGARYSIQTSSKQQGKASTPPVKKSFTPSKSPAPVSKKEPVKTPSPAPAAKISSRVNDNNDDDDWNEPELKERDFDQAPLKPNQSSYKPIGKIDLQKVIAEEKAKEDPRLVQKPTAAGSKIDPSSDIANLKNESKLKRDSEFNSFLGTTKPPSMTESSLKNDDDKVIKGFRNEKSPAQLWAERKAKQNSGNAETKAEAPKPEVPEDEPEGEPDVKDLKSKFEGLAASEKEEEEMENKFAPPPKKSEPTIISPKPFSKPQEPVKAEEAEQPKTDYKKIGNPLPGMHIEADNEEEPEENDDDWDDDEDEAAQPPLPSRNVASGAPVQKEEPEQEEIAPSLPSRNSIPAPKQEEAPEQAPEEEIEEEAEEAAPQLPSRSSAAPPPPPRRATPEKKPKENPWATAEYDYDAAEDNELTFVENDKIINIEFVDDDWWLGELEKDGSKGLFPSNYVSLGN
modifications: synonymous F49F
Hua2
  hua2sc: Frequencies scaled to the synonymous mutation distribution (DMS score): 0.1177
  HUA2_MTX2: frequencies normalized to the reference condition: 1.73
  quadrant (effect of mutation on Hua2 and Lsb3 interactions): Neutral
Lsb3
  lsb3sc: Frequencies scaled to the synonymous mutation distribution (DMS score): -0.3759
  LSB3_MTX2: frequencies normalized to the reference condition: 1.124

B3: ABP1 Y53Y (protein, UniProt P15891 2-592, looked up)
Actin-binding protein: ALEPIDYTTHSREIDAEYLKIVRGSDPDTTWLIISPNAKKEYEPESTGSSFHDFLQLFDETKVQYGLARVSPPGSDVEKIIIIGWCPDSAPLKTRASFAANFAAVANNLFKGYHVQVTARDEDDLDENELLMKISNAAGARYSIQTSSKQQGKASTPPVKKSFTPSKSPAPVSKKEPVKTPSPAPAAKISSRVNDNNDDDDWNEPELKERDFDQAPLKPNQSSYKPIGKIDLQKVIAEEKAKEDPRLVQKPTAAGSKIDPSSDIANLKNESKLKRDSEFNSFLGTTKPPSMTESSLKNDDDKVIKGFRNEKSPAQLWAERKAKQNSGNAETKAEAPKPEVPEDEPEGEPDVKDLKSKFEGLAASEKEEEEMENKFAPPPKKSEPTIISPKPFSKPQEPVKAEEAEQPKTDYKKIGNPLPGMHIEADNEEEPEENDDDWDDDEDEAAQPPLPSRNVASGAPVQKEEPEQEEIAPSLPSRNSIPAPKQEEAPEQAPEEEIEEEAEEAAPQLPSRSSAAPPPPPRRATPEKKPKENPWATAEYDYDAAEDNELTFVENDKIINIEFVDDDWWLGELEKDGSKGLFPSNYVSLGN
modifications: synonymous codon change Y53Y
Hua2
  hua2sc: Frequencies scaled to the synonymous mutation distribution (DMS score): -0.26
  HUA2_MTX2: frequencies normalized to the reference condition: 1.353
  quadrant (effect of mutation on Hua2 and Lsb3 interactions): Neutral
Lsb3
  lsb3sc: Frequencies scaled to the synonymous mutation distribution (DMS score): -0.1658
  LSB3_MTX2: frequencies normalized to the reference condition: 1.335

B4: ABP1 S51S (protein, UniProt P15891 2-592, looked up)
Actin-binding protein: ALEPIDYTTHSREIDAEYLKIVRGSDPDTTWLIISPNAKKEYEPESTGSSFHDFLQLFDETKVQYGLARVSPPGSDVEKIIIIGWCPDSAPLKTRASFAANFAAVANNLFKGYHVQVTARDEDDLDENELLMKISNAAGARYSIQTSSKQQGKASTPPVKKSFTPSKSPAPVSKKEPVKTPSPAPAAKISSRVNDNNDDDDWNEPELKERDFDQAPLKPNQSSYKPIGKIDLQKVIAEEKAKEDPRLVQKPTAAGSKIDPSSDIANLKNESKLKRDSEFNSFLGTTKPPSMTESSLKNDDDKVIKGFRNEKSPAQLWAERKAKQNSGNAETKAEAPKPEVPEDEPEGEPDVKDLKSKFEGLAASEKEEEEMENKFAPPPKKSEPTIISPKPFSKPQEPVKAEEAEQPKTDYKKIGNPLPGMHIEADNEEEPEENDDDWDDDEDEAAQPPLPSRNVASGAPVQKEEPEQEEIAPSLPSRNSIPAPKQEEAPEQAPEEEIEEEAEEAAPQLPSRSSAAPPPPPRRATPEKKPKENPWATAEYDYDAAEDNELTFVENDKIINIEFVDDDWWLGELEKDGSKGLFPSNYVSLGN
modifications: synonymous codon S51S
Hua2
  hua2sc: Frequencies scaled to the synonymous mutation distribution (DMS score): -0.02064
  HUA2_MTX2: frequencies normalized to the reference condition: 1.592
  quadrant (effect of mutation on Hua2 and Lsb3 interactions): Neutral
Lsb3
  lsb3sc: Frequencies scaled to the synonymous mutation distribution (DMS score): 0.05209
  LSB3_MTX2: frequencies normalized to the reference condition: 1.552

B5: ABP1 P50P (protein, UniProt P15891 2-592, looked up)
Actin-binding protein: ALEPIDYTTHSREIDAEYLKIVRGSDPDTTWLIISPNAKKEYEPESTGSSFHDFLQLFDETKVQYGLARVSPPGSDVEKIIIIGWCPDSAPLKTRASFAANFAAVANNLFKGYHVQVTARDEDDLDENELLMKISNAAGARYSIQTSSKQQGKASTPPVKKSFTPSKSPAPVSKKEPVKTPSPAPAAKISSRVNDNNDDDDWNEPELKERDFDQAPLKPNQSSYKPIGKIDLQKVIAEEKAKEDPRLVQKPTAAGSKIDPSSDIANLKNESKLKRDSEFNSFLGTTKPPSMTESSLKNDDDKVIKGFRNEKSPAQLWAERKAKQNSGNAETKAEAPKPEVPEDEPEGEPDVKDLKSKFEGLAASEKEEEEMENKFAPPPKKSEPTIISPKPFSKPQEPVKAEEAEQPKTDYKKIGNPLPGMHIEADNEEEPEENDDDWDDDEDEAAQPPLPSRNVASGAPVQKEEPEQEEIAPSLPSRNSIPAPKQEEAPEQAPEEEIEEEAEEAAPQLPSRSSAAPPPPPRRATPEKKPKENPWATAEYDYDAAEDNELTFVENDKIINIEFVDDDWWLGELEKDGSKGLFPSNYVSLGN
modifications: synonymous codon change P50P
Hua2
  hua2sc: Frequencies scaled to the synonymous mutation distribution (DMS score): -0.6569
  HUA2_MTX2: frequencies normalized to the reference condition: 0.9559
  quadrant (effect of mutation on Hua2 and Lsb3 interactions): Neutral
Lsb3
  lsb3sc: Frequencies scaled to the synonymous mutation distribution (DMS score): -0.6263
  LSB3_MTX2: frequencies normalized to the reference condition: 0.874

From publication PMC7954794, “Protein context shapes the specificity of SH3 domain-mediated interactions in vivo” (Nature Communications, 2021)
